Data as given in patent US10358467B2, “Therapeutic targets for cancer progression” (The Regents of the University of California, priority 2015, dated 2019).

Tests used:
Type in all cases: cell-based
[1] = system: cAMP levels in HeLa cells; experiment: Measurement of cAMP by radioimmunoassay in HeLa cells
Experimental: HeLa cells were transfected with DAPLE-WT or DAPLE-FA, serum starved (0.2% FBS, 16 h) and incubated with isobutylmethylxanthine (IBMX, 200 μM, 20 min) followed by Wnt5a stimulation (100 ng/ml, 20 min) and Forskolin (10 uM, 10 min). To stop the reaction, cell medium was replaced with 150 μl of ice-cold TCA 7.5% (w/v). cAMP content in TCA extracts was determined by radioimmunoassay (MA) and normalized. To the amount of protein [(determined using a dyebinding protein assay (Bio-Rad)] per sample as previously described (Ostrom et al, 2001).

[2] = system: Gi heterotrimer (Gαi1-YFP, CFP-Gβ1, Gγ2); experiment: FRET between Gαi1-YFP and CFP-Gβ1 (Gi activation) in living HeLa cells
Experimental: (§1) Förster Resonance Energy Transfer (FRET) experiments were performed using the classical ECFP- and EYFP-tagged proteins as donor and acceptor FRET-probe pairs, respectively. Previously validated and published FZD7-CFP construct was a generous gift from Carl-Philip Heisenberg (Witzel et al, 2006). Previously validated Gαi3-YFP and Gαi1-YFP (internally tagged Gαi subunits) and CFP-Gβ1 were generous gifts from Moritz Bunemann (Bunemann et al, 2003; Gibson & Gilman, 2006). Interaction of FZD7-CFP and Gαi3-YFP proteins was studied in HEK293T cells using a Leica inverted laser scanning confocal microscope. […] Loss of FRET upon Gi activation and heterotrimer dissociation was measured between Gαi1-YFP and CFP-Gβ1 proteins co-expressed in living HeLa cells using Olympus FV1000 inverted confocal laser scanning microscope equipped with a 60× 1.49 N.A oil immersed objective designed to minimize chromatic aberration and enhance resolution for 405-605 nm imaging as described previously (Midde et al, 2015). […] FRET efficiency was calculated on a pixel by pixel basis from ratiometric images obtained in individual channels (donor, acceptor and FRET) through a RiFRET plugin in Image J software (Roszik et al, 2009). […]

FZD7R-Gαi3 complexes = experiment: FRET between FZD7R-CFP and Gαi3-YFP in HEK293 cells; conditions: plasma membrane, within 5 min; starved cells 0.04±0.01
Experimental: as §1

B1: Wnt5a: recombinant Wnt5a purified from CHO conditioned media (protein, UniProt P41221 62-380, looked up)
Protein Wnt-5a: IIGAQPLCSQLAGLSQGQKKLCHLYQDHMQYIGEGAKTGIKECQYQFRHRRWNCSTVDNTSVFGRVMQIGSRETAFTYAVSAAGVVNAMSRACREGELSTCGCSRAARPKDLPRDWLWGGCGDNIDYGYRFAKEFVDARERERIHAKGSYESARILMNLHNNEAGRRTVYNLADVACKCHGVSGSCSLKTCWLQLADFRKVGDALKEKYDSAAAMRLNSRGKLVQVNSRFNSPTTQDLVYIDPSPDYCVRNESTGSLGTQGRLCNKTSEGMDGCELMCCGRGYDQFKTVQTERCHCKFHWCCYVKCKKCTEIVDQFVCK
suppression of cAMP levels ([1]; HeLa cells expressing DAPLE-FA): no such suppression
suppression of cAMP levels ([1]; HeLa cells expressing DAPLE-WT, Wnt5a 100 ng/ml 20 min): ~50%
drop in FRET after Wnt5a stimulation ([2]; DAPLE-depleted HeLa cells): No significant drop in FRET
FRET efficiency after Wnt5a stimulation ([2]; control HeLa cells, plasma membrane, within 5 min, 0.36±0.08 before stimulation): 0.17±0.06
FRET efficiency after ligand stimulation (FZD7R-Gαi3 complexes): 0.25±0.06
